Where a chain is given by its changes, count along the chain named.
B1: 3G12 murine-derived anti-PCSK9 monoclonal antibody (antibody, V domains shown)
VH: QVQLKQSGPSLLQPSQSLSITCTVSGFSLTSYGIHWVRQSPGKGLEWLGVIWRGGITDYNAPFMSRLNITKDNSKNQVFFKMNSLQVDDTAIYYCANHRDWGQGTLVTVSA
VL: DIQMTQSPSSLSASLGGKVTITCKASQDINKYIDWYQHKPGKSPRLLIHYASTLQPGIPSRFSGSGSGRDYSFSISNLEPEDIATYYCLQYDDLWTFGGGTKLEIK
notes: Mouse hybridoma antibody
B2: 1A5 murine-derived anti-PCSK9 monoclonal antibody (antibody, V domains shown)
VH: B1 VH with L12V, I34V, I56S, P62A, N68S, N76S, V87A
VL: B1 VL with G17D, S43G, A51T, L89V
notes: Mouse hybridoma antibody
B3: humanized anti-PCSK9 antibody clone 32 (antibody, V domains shown)
VH: QVQLQESGPGLVKPSQTLSLTCTVSGFSISSYGIHWIRQSPGKGLEWIGVIWRGGITDYNAPFMSRVTISKDNSKNQVSFKLSSVTAADTAVYYCANHRDWGQGTLVTVSS
VL: DIQMTQSPSSLSASVGDRVTITCQASQDINKYIDWYQHKPGKAPKLLIHYASTLQPGVPSRFSGSGSGRDYTFTISSLQPEDIATYYCLQYDDLWTFGQGTKVEIK
notes: also called humanized antibody
B4: humanized anti-PCSK9 antibody clone 77 (antibody, V domains shown)
VH: B3 VH with I34V, I56S, P62A
VL: B3 VL
notes: It shares its light chain with clone 32; also called humanized antibody
B5: 1B5 murine-derived anti-PCSK9 monoclonal antibody (antibody, V domains shown)
VH: DVQLQESGPGLVKPSQSLSLTCTVTGYSITSDYAWNWIRQFPGNKVEWMGYISYSGSSSYNPSLKGRISITRDTSKNQFFLQLNSVTTEDTATYYCARFYYRFDAYFDSWGQGTTLTVSS
VL: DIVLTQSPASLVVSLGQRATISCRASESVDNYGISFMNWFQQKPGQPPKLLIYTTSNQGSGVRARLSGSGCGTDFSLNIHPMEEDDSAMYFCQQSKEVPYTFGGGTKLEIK
notes: Mouse hybridoma antibody
B6: 1B11 murine-derived anti-PCSK9 monoclonal antibody (antibody, V domains shown)
VH: QVQLQQSGAVLVRPGTSIKVSCKASGYAFTNYLIEWIKKRPGQGLEWIGMINPGSGDTNFNEKFKAKATLTADKSSTTAYMQLNSLTFDDSAVYFCARSSQLGLPYWGQGTLVTVSA
VL: DIQMTQSPASLSASVGETVTITCRASENIYSYLAWYQQKQENSPQLLVYNAYTLADGVPSRFSGSGSGTQFSLKIISLQPEDFGNYYCQHHYRTPPTFGGGTKLEIK
notes: Mouse hybridoma antibody
B7: 2B12 murine-derived anti-PCSK9 monoclonal antibody (antibody, V domains shown)
VH: DVQLQESGPGLVKPSQSLSLTCSVTGFSITSDYAWNWIRQFPGNKLEWMGYISYSGTTNYNPSLKSRISITRDTSKNQFFLHLNSVITEDTATYYCARREGHYSWFPYWGQGTLVTVSA
VL: DIVLTQSPASLAVSLGQRATISCRASESVEYYGTSLMHWYQHKPGQTPKLLIYSGSNVESGVPARFSGSGSGTDFSLNIHPVEEDDIAMYFCQQSREVPSTFGGGTKLEIK
notes: Mouse hybridoma antibody
B8: 3G12 chimeric antibody (antibody, V domains shown)
VH: B1 VH
VL: B1 VL

Columns and labels:
[1] = target: T1, human PCSK9 D347Y recombinant protein (human, UniProt Q8NBP7 31-692, biotin label (sites not given) in Examples 3 and 9); experiment: cell-based or functional assay
T1 sequence (Q8NBP7 31-692 D374Y): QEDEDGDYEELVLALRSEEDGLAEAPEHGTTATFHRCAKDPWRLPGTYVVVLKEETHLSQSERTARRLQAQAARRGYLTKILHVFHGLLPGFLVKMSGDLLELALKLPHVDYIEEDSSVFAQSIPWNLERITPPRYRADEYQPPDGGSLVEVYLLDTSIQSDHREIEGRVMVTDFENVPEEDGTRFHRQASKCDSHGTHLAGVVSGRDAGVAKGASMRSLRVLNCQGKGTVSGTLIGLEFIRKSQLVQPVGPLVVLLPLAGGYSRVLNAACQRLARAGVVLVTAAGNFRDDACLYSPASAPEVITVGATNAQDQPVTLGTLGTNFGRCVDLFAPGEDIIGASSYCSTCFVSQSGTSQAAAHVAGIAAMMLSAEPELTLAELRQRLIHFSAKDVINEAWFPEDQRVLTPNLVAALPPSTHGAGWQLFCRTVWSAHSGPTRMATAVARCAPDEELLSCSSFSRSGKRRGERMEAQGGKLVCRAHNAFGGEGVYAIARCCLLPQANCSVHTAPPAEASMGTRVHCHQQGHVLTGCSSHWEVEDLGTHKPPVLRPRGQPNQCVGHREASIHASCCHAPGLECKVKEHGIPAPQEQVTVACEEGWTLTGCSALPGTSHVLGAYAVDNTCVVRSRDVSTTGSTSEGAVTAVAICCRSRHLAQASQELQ

[2] = target: T1, human PCSK9 D347Y recombinant protein; experiment: cell-based or functional assay; remark: listed apart in the source
[3] = target: T1, human PCSK9 D347Y recombinant protein; experiment: ELISA, antibody coated at 1 ug/ml, biotin-labeled PCSK9 (D347Y by the legend) titrated, HRP-streptavidin; the concentration is that of PCSK9; unit taken from the axis log(pg/ml)
[4] = target: T2, human PCSK9 recombinant protein (human PCSK9 extracellular region protein) (human, UniProt Q8NBP7 31-692, biotin label (biotin-xx-NHS, sites not stated) in the ELISA and flow cytometry assays); experiment: ELISA, biotin-labeled PCSK9 at 2 ug/ml captured on streptavidin, antibody titrated; unit taken from the axis log(pg/ml)
T2 construct: extracellular domain; The tag from the vector pSec CAGA2 ECD is not described; PCSK9 is a secreted protein; also called hPCSK9; HPCSK9
T2 sequence (Q8NBP7 31-692 limits assumed): as the sequence (Q8NBP7 31-692 D374Y) above, with Y344D counted along it

[5] = target: T2, human PCSK9 recombinant protein (human …); experiment: ForteBio instrument (BLI)
[6] = target: T1, human PCSK9 D347Y recombinant protein; experiment: ELISA, biotin-labeled PCSK9 (D347Y by the legend) at 2 ug/ml captured on streptavidin, antibody titrated; unit taken from the axis log(ng/ml)
[7] = target: T1, human PCSK9 D347Y recombinant protein; experiment: competition ELISA, biotin-labeled PCSK9 (D347Y by the legend) captured on streptavidin, antibody titrated in 200 ng/ml reference antibody, bound reference antibody detected with anti-human IgG-Fc; competitor: reference antibody; unit taken from the axis log(ng/ml)
[8] = target: T2, human PCSK9 recombinant protein (human …); experiment: ELISA, biotin-labeled PCSK9 at 0.2 ug/ml captured on streptavidin, antibody titrated; unit taken from the axis LOG (pg/mL)
[9] = target: T1, human PCSK9 D347Y recombinant protein; experiment: competition ELISA, biotin-labeled PCSK9 (D347Y by the legend) captured on streptavidin, antibody titrated in 200 ng/ml reference antibody, bound reference antibody detected with anti-human IgG-Fc; competitor: reference antibody; unit taken from the axis log(ng/ml); the curve is nearly flat (OD450 about 1.2 to 1.1), ambiguous fit
murine-derived PCSK9 = murine-derived PCSK9 (murine, UniProt Q80W65 35-694, limits assumed); experiment: ELISA, species cross-reactivity
murine-derived PCSK9, sequence (Q80W65 35-694 limits assumed): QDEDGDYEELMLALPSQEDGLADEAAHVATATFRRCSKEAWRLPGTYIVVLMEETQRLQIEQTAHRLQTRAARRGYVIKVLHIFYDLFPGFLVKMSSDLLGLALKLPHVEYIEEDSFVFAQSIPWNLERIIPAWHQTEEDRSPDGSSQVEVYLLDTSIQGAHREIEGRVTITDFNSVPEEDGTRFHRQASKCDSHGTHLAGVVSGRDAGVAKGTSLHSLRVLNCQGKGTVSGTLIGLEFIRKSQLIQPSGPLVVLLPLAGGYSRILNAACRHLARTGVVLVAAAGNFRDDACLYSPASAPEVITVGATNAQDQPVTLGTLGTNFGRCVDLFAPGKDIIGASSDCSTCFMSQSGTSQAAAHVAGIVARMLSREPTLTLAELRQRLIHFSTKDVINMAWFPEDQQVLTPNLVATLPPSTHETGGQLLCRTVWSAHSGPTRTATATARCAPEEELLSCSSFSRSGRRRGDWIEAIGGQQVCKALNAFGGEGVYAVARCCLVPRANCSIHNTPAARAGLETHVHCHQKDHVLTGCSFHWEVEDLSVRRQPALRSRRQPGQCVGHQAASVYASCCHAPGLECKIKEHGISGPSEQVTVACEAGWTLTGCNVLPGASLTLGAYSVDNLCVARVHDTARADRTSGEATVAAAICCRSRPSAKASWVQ

IC50(nM), LDL uptake of HepG2 cells (FL-LDL fluorescence) [1] [nM]	IC50, LDL uptake of HepG2 cells [2] [µg/mL]	EC50 [3] [µg/mL]	EC50 [4] [µg/mL]	Kd [5] [nM]	EC50 [6] [µg/mL]	IC50 [7] [µg/mL]	EC50 [8] [ng/mL]	IC50, LDL uptake of HepG2 cells (Dil-LDL fluorescence) [2] [µg/mL]	IC50 [9] [µg/mL]	binding result (murine-derived PCSK9)	Binder
5.5	~1	0.0835	0.078	0.28	0.223	0.0766					B1
	~1	0.752		0.91	0.251	0.808					B2
							5.16	~1			B3
							4.81	~1			B4
	~1	0.666		0.9	0.318	0.675					B5
	~1	0.143		4.7					~0.227	no binding	B6
	~1	0.0389		0.49	0.023						B7
			0.0338								B8

From patent US20190233540A1 (JUNSHI BIOSCIENCES, published 2019)
